In the assay the target is RhoA fused to LexA DNA-binding domain (yeast two hybrid) (human). Description: yeast two hybrid, β-galactosidase activity.

B1: M2-9 (906-1004) fused to the VP16-activation domain (yeast two hybrid) (other)
chain: RGLLEEQYFELTQESKKAASRNRQEITDKDHTVSRLEEANSMLTKDIEILRRENEELTEKMKKAEEEYKLEKEEEISNLKAAFEKNINTERTLKTQAVN
Take B1: the binding result was “no binding”.

B2: M2-6 (974-1024) fused to the VP16-activation domain (yeast two hybrid) (other)
chain: KLEKEEEISNLKAAFEKNINTERTLKTQAVNKLAEIMNRKDFKIDRKKANT
For B2, the binding result is “no binding”.

The values are drawn from patent US6013499, “Rho target protein kinase p160” (Kirin Beer Kabushiki Kaisha, dated 2000).
